Results as given in patent CN102827282A (LIN HONG, dated 2012).

Biological target: T1, 重组人Trop-2蛋白 (human, UniProt P09758 27-274, limits assumed)
T1 construct: Purified recombinant protein coated on ELISA plates; also called recombinant human Trop-2 protein; 重组的Trop-2蛋白
T1 sequence (looked up): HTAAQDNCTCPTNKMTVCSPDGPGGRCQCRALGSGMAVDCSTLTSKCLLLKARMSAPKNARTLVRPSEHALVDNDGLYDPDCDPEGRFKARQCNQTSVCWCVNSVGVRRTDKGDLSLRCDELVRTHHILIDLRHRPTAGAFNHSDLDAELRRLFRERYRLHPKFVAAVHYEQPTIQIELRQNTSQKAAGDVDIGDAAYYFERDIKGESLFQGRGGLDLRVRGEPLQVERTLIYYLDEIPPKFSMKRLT
Experiment: phage ELISA of single clones after five rounds of panning on recombinant human Trop-2

binding result: binds
B1: 抗Trop-2的特异性人源Fab抗体 (Fab, V domains shown)
VH: QVQLVESGGGVVQPGRSLRLSCAASGFTFSSYGMHWVRQAPGKGLEWVAVIWYDGSNKYYADSVKGRFTISRDNSKNTLYLQMNSLRAEDTAVYYCARDPGWGFDYWGQGTLVTVSS
VL: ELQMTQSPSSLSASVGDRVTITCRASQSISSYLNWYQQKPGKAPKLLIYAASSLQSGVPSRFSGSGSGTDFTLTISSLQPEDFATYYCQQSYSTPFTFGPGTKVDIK
notes: also called 抗Trop-2抗体Fab; pComb3x-Fab
